Test results: FireProtDB (doi:10.1073/pnas.90.18.8367)

B1: DNA-Binding protein, P69542 (parent)
chain: MIKVEIKPSQAQFTTRSGVSRQGKPYSLNEQLCYVDLGNEYPVLVKITLDEGQPAYAPGLYTVHLSSFKVGQFGSLMIDRLRLVPAK

Variants of: B1
Conditions: Enterobacteria phage fd; pH 7; 25 °C; GdnHCl; CD; MOPS 50 mM; NaCl 100 mM; reversible: yes; structure 1VQB; whole UniProt chain shown

| Variant | ddG of mutation (higher = less stable) [kcal/mol] | unfolding free energy [kcal/mol] |
| --- | --- | --- |
| H64C | -0.5 |  |
| L32Y | -1 |  |
| F73W | -0.8 |  |
| L32Y R82C |  | 0.15 |
| L28V | -1.1 |  |
| I6V M77I |  | 0.34 |
| V45C | 0.1 |  |
| A86T | 0.7 |  |
| A86V | -0.5 |  |
| F13T | 0.7 |  |
| F68L | 4.3 |  |
| V35M | 1.1 |  |
| V35A | 2.2 |  |
| V35L | 2.7 |  |
| V35C | 1.4 |  |
| V35I | 0.7 |  |
| I6V E30F |  | 0.71 |
| E30F | -2 |  |
| F13T E30F |  | 1.59 |
| I47L | 0.7 |  |
| I47F | 2 |  |
| I47M | 2.2 |  |
| I47V | 2.6 |  |
| C33M | 3.5 |  |
| C33V | 0.2 |  |
| E30F A86V |  | 2.05 |
| E30F A86T |  | 1.17 |
| R82C | 1.5 |  |
